Source: the DeepSol protein solubility set

Assay: soluble on expression in E. coli; label from the status in PepcDB or PDB records

For “MGSDKIHHHHHHMENIMLQEIELKLAISPQIGIELPQYLAKFTILEHQNLFLGNTYYDYPDHFLAKQKMGLRIRQEDQELTLTLKTNGKVVSGLHSRPEYNLPLIEKETPTNAQLRGLYPFEQLPSSTLQPIFSTDFNRTFWLVEFQQSKIEVAFDQGKIIAGEYEQPISEIEFELKSGNVQDLFDFVETLPFERDIYFSSASKAKRGYLLGSKQFLTDWLNKWRDFLKEEREESAVDFCAKFNAVLKMEQKLLEETLSFSPTLFSQDFMKTVERVGAFFNLYHYYDENGKILEAMATEKQKETRLPALLESNQKIFVEIRDLIRFHSETKDNEKTIEKLTALLKSRVYFERMIKLMELSYDLG”, which “soluble on expression in E. coli” value is on record?
The value was “not soluble”.

With “MASKAVILAGGLGTRLSEETIVKPKPMVEIGGKPILWHIMKMYSVHGIKDFIICCGYKGYVIKEYFANYFLHMSDVTFHMAENRMEVHHKRVEPWNVTLVDTGDSSMTGGRLKRVAEYVKDDEAFLFTYGDGVADLDIKATIDFHKAHGKKATLTATFPPGRFGALDIQAGQVRSFQEKPKGDGAMINGGFFVLNPSVIDLIDNDATTWEQEPLMTLAQQGELMAFEHPGFWQPMDTLRDKVYLEGLWEKGKAPWKTWE” as the sequence, how does the “soluble on expression in E. coli” value read?
The value was “soluble”.

Which “soluble on expression in E. coli” value does the source give for “MEEEHEEESHLSQSDTVGSAIVEDGPGKEYEIYIKNEELVDKLKLLNYEDGFLKLGVVYKPILKHYFVKSKNVGEQFFLFTSLAAWLIKKSGDESYNMPQEFDDPNSTLANIMAAAKNKGIATDFTAAKLKSGAGENVIFILNSLADASLVHVGFQWQKMIPPKEEDEDTAVDEQDEDDDNDDIVEEPMNFLDDDDDDNVIEIDLKAQGLATESKNPLQSVLQSNTDAITWKQEVERVAPQLKITLKQDAKDWRLHLEQMNSMHKNVEQKVGNVGPYLDNMSKDIAKALERIASREKSLNSQLASMMSKFRRATDTRAELREKYKAASVGVSSRTETLDRISDDIEQLKQQIEEQGAKSSDGAPLVKIKQAVSKLEEELQTMNVQIGVFEQSILNTYLRDHFNFSANLLNIM” here?
Its value is “soluble”.

For “SIVHHAKERLILCSPYFIPDESLLEAVTSACYRGVTVELFVSEQADQFAIDHAQSSYYQALLEAGVKIYQFPKPDVLHTKYMIADPDDTTGNEALGVLGSSNLDIRSFGLNYEISLMIAKGNLIHELNALTDRYRTVSFKLTLDKWNQRSWRRRYVDNVMRLTSALQ”, which “soluble on expression in E. coli” value is on record?
Its value is “not soluble”.

With “MNLNKNLPTGTRDKLFREARASYQIEQQVNHYFAKRGFKRIETPVIEFEDVFSSEHQADAKLYRFFDEKGRLTVLRPDMTLPIGRVVSTTGVTLPLKLSYSGKIFRANEDFGGEQNEQTQAGIEIIGYPSIKAEIECILSGIGVLNALEIPNFQIELGHAAIYRRVIHLLNLPETAEMDFRLLIQNKSLTGIQQFVTENPSTLDDFILALPRLFGPATTILKQAKNLTTDKGILTALTEMETIVDAVSYAADISVDLGLVQDFHYYTGIIFRGYADLAADNFLSGGRYDHLLEQFTSSSSPAVGLALNLDSLTT” as the sequence, how does the “soluble on expression in E. coli” value read?
The value was “not soluble”.

For “MNIRDLEYLVALAEHRHFRRAADSCHVSQPTLSGQIRKLEDELGVMLLERTSRKVLFTQAGMLLVDQARTVLREVKVLKEMASQQGETMSGPLHIGLIPTVGPYLLPHIIPMLHQTFPKLEMYLHEAQTHQLLAQLDSGKLDCVILALVKESEAFIEVPLFDEPMLLAIYEDHPWANRECVPMADLAGEKLLMLEDGHCLRDQAMGFCFEAGADEDTHFRATSLETLRNMVAAGSGITLLPALAVPPERKRDGVVYLPCIKPEPRRTIGLVYRPGSPLRSRYEQLAEAIRARMDGHFDKVLKQAV”, which “soluble on expression in E. coli” value is on record?
Its value is “soluble”.

For “MDLSALREDFPLFAQRPELVYLDSAATSQKPRRVIEALRRYYETLNANVHRGAYRLSAEATEAYEEARRRLARFLNAEPKEIVFVRNTTEAMNLVAYAWGLRNLKEGDEVLVTEMEHHAGLVPWHLVAGLTGAKVKAIPLTEEGRLDLSALEDLLTERTRVVSLVHMSNVLGTINPVAEIARRAKEAGALVVVDGAQSAPHLPVDVKALGADFFALSGHKMLGPTGAGVLWGRYEVLEGMMPFLGGGEMILEVHVDRSTYAPPPQRFEAGTPPIAEAIALGEAACYLMEVGMEKVFAHDRALLDYALKRLEEVPRLRVYGPKGLDRGGVIPFTLGRLHAHDLATFLDQEGIAVRAGHHCAQPLHRKLGLAATARASFYLYNTKEEVDRFVEALLRIEAKYRAWL”, which “soluble on expression in E. coli” value is on record?
The value was “soluble”.

For “MAHHHHHHMDEKPRLIEHTSACRGTADVLILSGFPWYVTEGQVRKYLTEIHPSNIAPLTVRLYTNPANGSSRGICFVEYCPKQSNTGGASQGIKNEFPERKQKGEAEDIAALMKLRIEATAYERHYIRVLLYRLTNRNWDRGGRLPDLPTDPPPLATSRGGVLEGYGDEGFTVRCSALLGLANTVTPNGIASMQTLRKRFREEAAKAAMPNKSDEGYPGSSAARQ”, which “soluble on expression in E. coli” value is on record?
Its value is “not soluble”.

For “NEDNSFTVRANMTYAVSKVVHWDQDAVRYPYQSYSDVNYGVMRGLVALGLFQNQDEINRSPKQTYGEVRPGDIRYKDVNADGKIDDDDIVPIAHSNVPQIQYGFALEYRYKRWTISALFTGAAKVNFLYGGSGFYPFSGGEVGNILSIVNDPKNRWTPAWYSGDPSTENPNARFPRLTYGENKNNNRASTFWLADGSYLRWKSLDISYRIGTNKVLRTVGISDMNLQFVGQNLAVWDSVKLWDPGQASKNGAVYPLQRTFSLQLTATF”, which “soluble on expression in E. coli” value is on record?
Its value is “not soluble”.

With “MGSDKIHHHHHHMKSVQDRLSQTTNPSPKSYQQLYQEIVSDPEVAAFIKKEGLTQQEITLSISKFLEYISQRDLFVKQDEAYIAKGYQPVLVMNEGYADVSYLETEELVEYRRLEAIKNRIQLINMPASLKNVTVADIDKSDENRVEVMLAIADFVKRFEEKPKGLYIYGNFGIGKSYLMAYLANLLSKTHLQSTTMLHYPTFVVDIKNAIKDGSVKERIDEIKMAQVLVLDDIGAEQHSPWVRDDVLQVILQYRMQENLPTFFTSNFSFDDLERHFASGKSGDETWQAKRVMERIRYLARDLHLKGNNRR” as the sequence, how does the “soluble on expression in E. coli” value read?
The value was “not soluble”.

Which “soluble on expression in E. coli” value does the source give for “DLRFFGDFVLEGDARLGEVAALYGLKLDGIDPGMPLSQFIVQKNRGEPVVGDQIEWNGTIWTVAVMDGNKIQKVGVKFPEGTRPGPGLFL” here?
The value was “not soluble”.

Which “soluble on expression in E. coli” value does the source give for “MDLICMYVFKGEESFGESIDVYGDYLIVKVGTEFLAVPKKSIKSVEDGRIVIGEFDEEEARELGRKWLEEKSKPVTLEELKSYGFGEEGE” here?
The value was “not soluble”.

With “NDLVSFTLRGNASWNRDKIIENDEAPKPYPWMEKRGTNVFSQWGLIADGLFTSEEEIEKHATQFGQVYIGDIKYRDLNNDKKIDSNDICRIGQGTIPKYNYGFGFDVQIGYFSVSALFQGAADVTTCLSGNSIIPFSSQAGIDNLFDNIEDRWSPDDPTNEDVFYPRLHYGNSNNSNNYRASTWWLRNMDYLRLKQFNIAYNLPENTLKSVGVKGARIYLMGTNLLTFSKFKLWDPEVYSSNGAAYPNVMSCSLGVNFSF” as the sequence, how does the “soluble on expression in E. coli” value read?
The value was “not soluble”.

Which “soluble on expression in E. coli” value does the source give for “MGSDKIHHHHHHMTNEYEHLNAIQKIGLSILKEIIAICKRHDLTYYVYGGTLLGAIRHQGFIPWDDDVDIAMSRKDFEKLKQYQNEFPQYMFLDTIQQKGHQWTAAHVVDTRYKLEVGKGMKKATMSVWVDILIIDGVPNPGTFKYKIFSAAYLTARLLYKFSNFSNEVDLEKDRSAIETFFISFARITHIEKVINQHWAGCFIDWISRRYDLDKCEYGATLGGPQKMGETQPKYWFGKGKELLFEDIIVNGMEETENFLTKFYGPNYMTPPPLDKRNQHNVRLVEKIV” here?
The value was “not soluble”.

With “EAMKIKNQFATWDYEKKLQSMEHDSSIQKQLLATQRAQIEQRLAAQKAALEAERDAAGYHAAAGEADNEGVRQAYDALAQDSARRARDLAETAQRGKSQLDEIVGRLKDLADRSAANIINQGINQTVVVKLEKTGRLHTDQDIAKALEETLNAVKGLEARVEMVEAARAPSALEAAHSQL” as the sequence, how does the “soluble on expression in E. coli” value read?
The value was “not soluble”.

Which “soluble on expression in E. coli” value does the source give for “MPIRAMEKATAGKLLTRAEALSLLTEGDLLALGRLADAVRRRMHPENLVTFVVDRNVNYTNVCESKCKFCAFYRDEAAPDAYLLAEEAIFAKIAELVEHGGTQLLMQGGLHPQLGIDWFEDLFRGIKARFPQVQNHSLSPAEITQIATVSKLTIPETVRRLREAGLDSIPGGGAEILVDSVRQEISPRKIGWEGWAAVMSEAARQGMATTATMMFGSRETPEDIVEHLFRVRELQAAGGSFTAFIPWTYQPGNTELGGTGATGVEYLKVLALSRIVLDNIPSIQASWVTQGAAMAQVSLFFGANDLGGTMLEENVVAAAGCTFRMSREEMVELIREAGFRAAQRTTLYSIIREY” here?
Its value is “not soluble”.

For “ELSENFKKLMKYPYRPCTCTRCIEEQRVSAWFDERFNRSMQPLLTAKNAHLEEDTYKWWLRLQREKQPNNLNDTIRELFQVVPGNVDPLLEKRLVSCRRCAVVGNSGNLKESYYGPQIDSHDFVLRMNKAPTEGFEADVGSKTTHHFVYPESFRELAQEVSMILVPFKTTDLEWVISATTTGRISHTYVPVPAKIKVKKEKILIYHPAFIKYVFDRWLQGHGRYPSTGILSVIFSLHICDEVDLYGFGADSKGNWHHYWENNPSAGAFRKTGVHDGDFESNVTTILASINKIRIFKGR”, which “soluble on expression in E. coli” value is on record?
The value was “soluble”.

For “MMALDDTVTIKPIRAEHVESFHRALDAVSRERKYLSFLEAPPLEAVRAFVLDMIENDHPQFVAIADGDVIGWCDIRRQDRATRAHCGTLGMGILPAYRNKGLGARLMRRTLDAAHEFGLHRIELSVHADNARAIALYEKIGFAHEGRARDAVSIDGHYIDSLNMAIIFGN”, which “soluble on expression in E. coli” value is on record?
The value was “soluble”.

Which “soluble on expression in E. coli” value does the source give for “SNAMTTKRVKKMGKEEMKEMFDLVIYAFNQEPTAERQERFEKLLSHTQSYGFLIDEQLTSQVMATPFQVNFHGVRYPMAGIGYVASYPEYRGEGGISAIMKEMLADLAKQKVALSYLAPFSYPFYRQYGYEQTFEQAEYTIKTEDWPRVKRVPGTIKRVSWADGKEVIKDVYLENQRAHSGGVIRETWWLDYTLNRASKPNNQAIYYSSEGKAEGYVIYRIAAGTFEIVEWNYLTNTAFKALAGFIGSHSGSVQSFHWINGFAGKDLNDLMPTPAASVKILPYMMARIVELQTFLEKYPFQSGEKETYSLEIEDSYGPWNEGIWTITIDEQGKATVTKGAAEKEGTAALKADIQTWTQLFLGYRSAETLSFYERLQGDATIAQRLGQRLVKGMPILEDYF” here?
Its value is “soluble”.

With “MATSKILLYYAFTPLSDPKAVQLWQRELCESLNLRGRILISTHGINGTVGGDIDDCKAYIKKTREYPGFNRMQFKWSEGGAEDFPKLSVKVRDEIVAFGAPDELKVDENGVVGGGVHLKPQQVNELVEARGDEVVFFDGRNAMEAQIGKFKDAVVPDVETTHDFIAEIESGKYDDLKDKPVVTYCTGGIRCEILSSLMINRGFKEVYQIDGGIVRYGEQFGNKGLWEGSLYVFDKRMHMEFGEDYKEVGHCIHCDTPTNKFEHCLNEDDCRELVLMCPDCFANVETRHCKRERCAAIAADFAEQGIDPLVTSLEHHHHHH” as the sequence, how does the “soluble on expression in E. coli” value read?
Its value is “soluble”.

Which “soluble on expression in E. coli” value does the source give for “MSLKVGECMTKFNWHESAEKKWDSSAEFWNQNSQEMWDSGSRSTIIPFFEQYVKKEAEVLDVGCGDGYGTYKLSRTGYKAVGVDISEVMIQKGKERGEGPDLSFIKGDLSSLPFENEQFEAIMAINSLEWTEEPLRALNEIKRVLKSDGYACIAILGPTAKPRENSYPRLYGKDVVCNTMMPWEFEQLVKEQGFKVVDGIGVYKRGVNEKMLGQLSTDLQQSLTFLWVFMLKRHKEMKEFLGGKEGHHHHHH” here?
The value was “soluble”.

For “MRDTLVLNASFEPLSTVTLNRAVILVLQDKAVVEQAHPELRMRGAALDIPVPRVIRLCRYVRVPFRRQAPWSRRGVLVRDRHRCAYCGRRATTVDHVVPRAQGGQDSWLNTVASCAEDNHRKAARTPEQAGMPLLRQPFEPTPADAMLLALGQDDFESLPEWLAQPAALEHHHHHH”, which “soluble on expression in E. coli” value is on record?
Its value is “not soluble”.

With “MYKAIIMPVDVFEMELSDKAVRHAEFLAQDDGVIHLLHVLPGSASLSLHRFAADVRRFEEHLQHEAEERLQTMVSHFTIDPSRIKQHVRFGSVRDEVNELAEELGADVVVIGSRNPSISTHLLGSNASSVIRHANLPVLVVR” as the sequence, how does the “soluble on expression in E. coli” value read?
Its value is “not soluble”.
